This passage reports percent of mCherry-LacRnls fusion foci colocalized with NBS1 results from publication doi:10.1101/2021.07.31.454588.

The experiment deals with mCherry-LacRnls-IE1 1–540 (human herpesvirus 6B (HHV-6B)). Nature of the experiment: LacO/LacR tethering assay.

As for “NBS1 (nibrin, NBN), endogenous (from UniProt O60934 1-754) (natural protein)”, the percent of mCherry-LacRnls fusion foci colocalized with NBS1 at the LacO array came to 81%.
